Test results: patent US20190358242A1, “COMPOSITIONS, KITS, AND METHODS TO INDUCE ACQUIRED CYTORESISTANCE USING STRESS PROTEIN INDUCERS” (FRED HUTCHINSON CANCER RESEARCH CENTER, priority 2017, published 2019)

Tests used:
HO-1 mRNA [1] = assay: SnPP vs. SnMeP: renal cortical HO-1 mRNA induction (RT-PCR); assay type: in vivo, mice; conditions: 1 umole, 4 hrs post injection, n 3
Description: (§1) FIG. 28. Comparison of SnPP vs. SnMeP effects on renal cortical HO-1 and haptoglobin mRNA induction 4 hrs post agent injection. Mice received either 1 umole tin protoporphyrin (SnPP), tin mesoporphyrin (SnMeP), or vehicle (n, 3 each) and 4 hrs renal cortical RNA was extracted and subjected to RT-PCR.

haptoglobin mRNA [2] = assay: SnPP vs. SnMeP: renal cortical haptoglobin mRNA induction (RT-PCR); assay type: in vivo, mice; conditions: 1 umole, 4 hrs post injection, n 3
Description: as §1

HO-1 protein [3] = assay: Tin mesoporphyrin: renal cortical and plasma HO-1 protein (ELISA); assay type: in vivo, mice
Description: FIG. 29. Tin mesoporphryin effects on renal cortical and plasma HO-1 protein levels at 4 and 18 hrs post 1 umole injection. By 4 hrs and 18 hrs post Sn mesoporphyrin injection, an approximate 3 fold and 5 fold increases in renal cortical HO-1 levels over baseline (BL) were observed, as detected by ELISA. Plasma HO-1 levels rose ˜15 fold by 18 hrs post injection (n, 3-4 per group).

haptoglobin = assay: Tin mesoporphyrin: renal cortical and plasma haptoglobin levels; assay type: in vivo, mice; conditions: 4 and 18 hrs post 1 umole injection
[4] = test system: bilateral renal ischemic injury; assay: 22 min bilateral renal ischemic injury after mesoporphyrin pre-treatment; assay type: in vivo, mice; conditions: 1 umole 18 hrs before 22 min bilateral ischemic injury
Experimental: FIG. 31. Tin mesoporphyrin pre-treatment mitigates renal ischemic injury. Mice received either 1 umole of Sn mesoporphyrin (MeP; n, 3) or vehicle (n,4) and 18 hrs later they were all subjected to 22 min of bilateral ischemic injury.
Protection against acute kidney injury. Mice are treated with MesP alone (0.1-20.5 umoles), FeS alone (1 mg), MesP+FeS, or vehicle injection. Eighteen hrs post injections, the mice are anesthetized with pentobarbital. The abdominal cavities are opened. The renal pedicles are identified, and both are occluded with microvascular clamps. Body temperature are maintained at 36-37° C. throughout. Following 22 minutes of bilateral renal ischemia, the clamps are removed, uniform reperfusion are confirmed by the loss of tissue cyanosis, and then the abdominal cavities are closed in two layers with silk suture. Eighteen hrs later, the mice are re-anesthetized, the abdominal cavities are re-opened, and terminal blood samples are obtained from the vena cava. AKI severity are determined by degrees of BUN and plasma creatinine increases.

HK-2 cells = assay: HK-2 cell injury by MTT assay; assay type: cell-based; conditions: 10 mg/ml, equimolar Na nitrite, 18 hr incubation
Experimental: HK-2 cells (a proximal tubule cell line derived from normal human kidney) were incubated in keratinocyte serum free medium either under normal (control) conditions or in the presence of 10 mg/mL horse skeletal muscle myoglobin or nitrited myoglobin (produced by equimolar Na nitrite addition to 10 mg/ml myoglobin). After 18 hr incubations, the severity of cell injury (% cell death) was assessed by MTT assay. Myoglobin induced 40% cell death (40% decrease in MTT cell uptake), compared to control incubated cells. Nitrite binding to myoglobin reduced cell death by 75%. Thus, nitrite binding is able to reduce myoglobin's cytotoxic effects.

[5] = Serum creatinine after 2 hr subcutaneous infusion of nitrited myoglobin + SnPP; assay type: in vivo, mice; conditions: 2 hr SC infusion 1, 3, 6, 12, or 25 mg/Kg + 1 μmole SnPP; 18 hrs later
Experimental: Mice were subjected to a 2 hr subcutaneous infusion of 1, 3, 6, 12, or 25 mg/Kg of nitrited myoglobin (holding SnPP at a constant dose of 1 μmole). Eighteen hrs later, potential renal injury was assessed by measuring serum creatinine concentrations.
An obvious concern by applying this prophylactic strategy to patients is potential renal and/or extrarenal toxicities. […] Furthermore, it was previously documented in a cell culture system that nitrite addition markedly reduces myoglobin's cytotoxic effects by 75% (unpublished data, 2014). To assess the potential in vivo margin of safety for N-Mgb+SnPP (see Supplemental FIGS.), the maximal amount of N-Mgb that could be given to mice before nephrotoxicity was observed was tested. Up to 25 times the employed N-Mgb dose (with a constant SnPP dose) could be administered (over 2 hours) without induction of nephrotoxicity (normal BUN and creatinine, 18 hours later).

HO-1 mRNA [6] = assay: Kidney HO-1 mRNA (RT-PCR); assay type: in vivo, CD-1 mice
Experimental: (§2) Thirty-two mice were divided into 4 equal groups: (1) control mice; (2) mice treated with 1 mg of N-Mgb injection (as a bolus through the tail vein); (3) mice treated with […] of SnPP (via tail vein); and (4) mice treated with combined N-Mgb 1 SnPP. After either 4 hours (n=16) or 18 hours (n=16), the mice were deeply anesthetized with pentobarbital (50 mg/kg), the abdomen was opened through a midline abdominal incision, and the kidneys were removed. To determine potential effects on extrarenal organs, a liver lobe and the heart were also removed. The tissues were iced and then extracted for protein and RNA (RNeasy Plus Mini; Qiagen, Valencia, Calif.) and subjected to enzyme linked immunosorbent assay (ELISA) and reverse transcriptase polymerase chain reaction (RT-PCR) for HO-1, haptoglobin, and IL-10 protein and messenger RNAs (mRNAs). Zager et al. J Am Soc Nephrol 2014; 25:998-1012; Zager et al. Am J Physiol 2012; 303:F139-48. As an assessment of renal function, control mice and the 18 hour after N-Mgb+SnPP-treated mice had blood urea nitrogen (BUN) and plasma creatinine levels measured. Additionally, transverse 10% formalin fixed kidney sections ([…]) were cut and stained with hematoxylin and eosin (H&E) and periodic acid Schiff (PAS) to further assess potential injury.

haptoglobin mRNA [7] = assay: Kidney haptoglobin mRNA (RT-PCR); assay type: in vivo, CD-1 mice
Experimental: as §2

IL-10 mRNA [8] = assay: Kidney IL-10 mRNA (RT-PCR); assay type: in vivo, CD-1 mice
Experimental: as §2

HO-1 protein [9] = assay: Kidney HO-1 protein (ELISA); assay type: in vivo, CD-1 mice
Experimental: as §2

haptoglobin protein [10] = assay: Kidney haptoglobin protein (ELISA); assay type: in vivo, CD-1 mice
Experimental: as §2

IL-10 protein [11] = assay: Kidney IL-10 protein (ELISA); assay type: in vivo, CD-1 mice
Experimental: as §2

HO-1 mRNA [12] = assay: Liver HO-1 mRNA (RT-PCR); assay type: in vivo, CD-1 mice
Experimental: as §2

haptoglobin mRNA [13] = assay: Liver haptoglobin mRNA (RT-PCR); assay type: in vivo, CD-1 mice
Experimental: as §2

IL-10 mRNA [14] = assay: Liver IL-10 mRNA (RT-PCR); assay type: in vivo, CD-1 mice
Experimental: as §2

HO-1 protein [15] = assay: Liver HO-1 protein (ELISA); assay type: in vivo, CD-1 mice; parameters: unit not given beside the values
Experimental: as §2

haptoglobin protein [16] = assay: Liver haptoglobin protein (ELISA); assay type: in vivo, CD-1 mice; parameters: unit not given beside the values
Experimental: as §2

IL-10 protein [17] = assay: Liver IL-10 protein (ELISA); assay type: in vivo, CD-1 mice
Experimental: as §2

HO-1 mRNA [18] = assay: Cardiac HO-1 mRNA (RT-PCR); assay type: in vivo, CD-1 mice
Experimental: as §2

haptoglobin mRNA [19] = assay: Cardiac haptoglobin mRNA (RT-PCR); assay type: in vivo, CD-1 mice
Experimental: as §2

IL-10 mRNA [20] = assay: Cardiac IL-10 mRNA (RT-PCR); assay type: in vivo, CD-1 mice
Experimental: as §2

HO-1 protein [21] = assay: Cardiac HO-1 protein (ELISA); assay type: in vivo, CD-1 mice; conditions: 4 h after IV injection
Experimental: as §2

haptoglobin protein [22] = assay: Cardiac haptoglobin protein (ELISA); assay type: in vivo, CD-1 mice
Experimental: as §2

IL-10 protein [23] = assay: Cardiac IL-10 protein (ELISA); assay type: in vivo, CD-1 mice
Experimental: as §2

[24] = test system: glycerol model of rhabdomyolysis-induced AKI; assay: Glycerol model of rhabdomyolysis-induced AKI; assay type: in vivo, CD-1 mice; conditions: IV pretreatment 18 h before glycerol; 18 hours after glycerol
Experimental: Assessments of cytoresistance. Glycerol model of rhabdomyolysis-induced AKI. Twenty mice were divided into 4 equal groups (controls, mice treated with N-Mgb, SnPP, and mice treated with N-Mgb+SnPP tail vein injections) as described previously. 18 hours later, the mice were briefly anesthetized with isoflurane and immediately injected with 9 mL/kg of 50% glycerol, administered in equally divided doses into each hind limb. At 18 hours after glycerol injection, the mice were anesthetized with pentobarbital, the abdomen was opened, a blood sample for BUN and creatinine assessments was obtained from the vena cava, and the kidneys were resected. The control post-glycerol group and the N-Mgb+SnPP-pretreated glycerol group had kidney sections stained with H&E.
To assess whether the previously determined plasma and kidney HO-1 and haptoglobin levels correlated with degrees of cytoresistance, additional mice were injected with 0, 2.5, or 5 mg of N-Mgb […] of SnPP (n=3 mice per group). Eighteen hours later, all mice were subjected to the glycerol AKI model as described previously. Severities of AKI were determined 18 hours after glycerol injection by BUN and plasma creatinine analyses.
Calculations and statistics. All values are given as the mean […] standard error of the mean. Statistical comparisons were made by unpaired Student's t test. […]

[25] = 4 h after IV injection, N-Mgb 1 mg, SnPP 1 mmol [sic]

## tin mesoporphyrin [SnMeP]
HO-1 mRNA [1]
  Renal cortical HO-1 mRNA induction: raised
Haptoglobin mRNA [2]
  Renal cortical haptoglobin mRNA induction: raised
HO-1 protein [3]; 4 hrs post 1 umole injection
  Increase in renal cortical HO-1 levels over baseline: ~3 fold
HO-1 protein [3]; 18 hrs post 1 umole injection
  Increase in renal cortical HO-1 levels over baseline: ~5 fold
  Rise in plasma HO-1 levels: ~15 fold
haptoglobin
  Renal cortical and plasma haptoglobin levels: stepwise increases
[4]
  Renal ischemic damage (BUN and plasma creatinine concentrations): lessening of ischemic damage

B1: N-Mgb: horse myoglobin converted into a nitrited form by addition of equimolar sodium nitrite (protein, UniProt P68082 2-154, looked up)
Myoglobin: GLSDGEWQQVLNVWGKVEADIAGHGQEVLIRLFTGHPETLEKFDKFKHLKTEAEMKASEDLKKHGTVVLTALGGILKKKGHHEAELKPLAQSHATKHKIPIKYLEFISDAIIHVLHSKHPGDFGADAQGAMTKALELFRNDIAAKYKELGFQG
modifications: nitrite-modified
notes: horse myoglobin converted into a nitrited form by addition of equimolar sodium nitrite
HK-2 cells
  Reduction of myoglobin-induced cell death by nitrite binding: 75%
[5]
  Serum creatinine concentration change: No significant increase
HO-1 mRNA [6]; [25]
  Kidney mRNA HO-1: 3.38 ± 0.38
HO-1 mRNA [6]; 4 hour, agent alone
  Renal HO-1 mRNA increase, in words: only modest increases
HO-1 mRNA [6]; 18 h after IV injection
  Kidney mRNA cortex HO-1: 0.58 ± 0.18
Haptoglobin mRNA [7]; [25]
  Kidney mRNA Haptoglobin: 1.94 ± 0.31
Haptoglobin mRNA [7]; 18 h after IV injection
  Kidney mRNA cortex Haptoglobin: 0.24 ± 0.04
IL-10 mRNA [8]; 4-hour time point, agent alone
  Impact on renal IL-10 mRNA levels, in words: either minimal or no impact
IL-10 mRNA [8]; [25]
  Kidney mRNA IL-10: 1.45 ± 0.6
IL-10 mRNA [8]; 18 h after IV injection
  Kidney mRNA cortex IL-10: 0.43 ± 0.10
HO-1 protein [9]; 18-hour time point, agent alone
  Renal HO-1 protein increase, in words: only relatively small HO-1 protein increases
HO-1 protein [9]; [25]
  Kidney HO-1 protein: 36.1 ± 2.9
HO-1 protein [9]; 18 h after IV injection
  Kidney protein HO-1: 30 ± 6
Haptoglobin protein [10]; 18-hour time point, vs combination
  Renal haptoglobin protein levels, in words: comparably increased
Haptoglobin protein [10]; [25]
  Kidney Haptoglobin protein: 17.6 ± 1^
Haptoglobin protein [10]; 18 h after IV injection
  Kidney protein Haptoglobin: 183.8 ± 20.4
IL-10 protein [11]; [25]
  Kidney IL-10 protein: 265 ± 54
IL-10 protein [11]; 18 h after IV injection
  Kidney protein IL-10: 292 ± 54
IL-10 protein [11]; 18 hours, agent alone
  Renal IL-10 protein increase, in words: absence of IL-10 protein increases
HO-1 mRNA [12]; 4 h after IV injection
  Liver mRNA HO-1: 1.83 ± 0.33
HO-1 mRNA [12]; 18 h after IV injection
  Liver mRNA HO-1: 0.82 ± 0.07
Haptoglobin mRNA [13]; 4 h after IV injection
  Liver mRNA Haptoglobin: 0.98 ± 0.1
Haptoglobin mRNA [13]; 18 h after IV injection
  Liver mRNA Haptoglobin: 0.91 ± 0.07
IL-10 mRNA [14]; 4 h after IV injection
  Liver mRNA IL-10: 0.67 ± 0.46
IL-10 mRNA [14]; 18 h after IV injection
  Liver mRNA IL-10: 0.06 ± 0.02
HO-1 protein [15]; 4 h after IV injection
  Liver protein HO-1: 17 ± 2
HO-1 protein [15]; 18 h after IV injection
  Liver protein HO-1: 14.9 ± 0.3
Haptoglobin protein [16]; 4 h after IV injection
  Liver protein Haptoglobin: 359.5 ± 39.6
Haptoglobin protein [16]; 18 h after IV injection
  Liver protein Haptoglobin: 358.8 ± 32.8
IL-10 protein [17]; 4 h after IV injection
  Liver protein IL-10: 286 ± 32
IL-10 protein [17]; 18 h after IV injection
  Liver protein IL-10: 5988 ± 549
HO-1 mRNA [18]; 4 h after IV injection
  Cardiac mRNA HO-1: 0.09 ± 0.01
HO-1 mRNA [18]; 18 h after IV injection
  Cardiac mRNA HO-1: 0.08 ± 0.01
Haptoglobin mRNA [19]; 4 h after IV injection
  Cardiac mRNA Haptoglobin: 0.75 ± 0.10
Haptoglobin mRNA [19]; 18 h after IV injection
  Cardiac mRNA Haptoglobin: 0.53 ± 0.21
IL-10 mRNA [20]; 4 h after IV injection
  Cardiac mRNA IL-10: 0.86 ± 0.11
IL-10 mRNA [20]; 18 h after IV injection
  Cardiac mRNA IL-10: 0.67 ± 0.10
HO-1 protein [21]
  Cardiac protein HO-1: 1.64 ± 0.19
Haptoglobin protein [22]; 4 h after IV injection
  Cardiac protein Haptoglobin: 40.4 ± 8.6
Haptoglobin protein [22]; 18 h after IV injection
  Cardiac protein Haptoglobin: 249.6 ± 15.0
IL-10 protein [23]; 4 h after IV injection
  Cardiac Protein IL-10: 21 ± 12
IL-10 protein [23]; 18 h after IV injection
  Cardiac protein IL-10 (L-10 [sic]): 14.5 ± 10^
[24]
  Protection against glycerol-induced AKI judged by BUN/creatinine levels: modest protection
